Article PMC12101485 (Science Advances, 2025)

Molecular target: purified human BAG3 protein (human, UniProt O95817 1-575)
Assay: peptide or protein array

Chain of purified human BAG3 protein (O95817 whole entry): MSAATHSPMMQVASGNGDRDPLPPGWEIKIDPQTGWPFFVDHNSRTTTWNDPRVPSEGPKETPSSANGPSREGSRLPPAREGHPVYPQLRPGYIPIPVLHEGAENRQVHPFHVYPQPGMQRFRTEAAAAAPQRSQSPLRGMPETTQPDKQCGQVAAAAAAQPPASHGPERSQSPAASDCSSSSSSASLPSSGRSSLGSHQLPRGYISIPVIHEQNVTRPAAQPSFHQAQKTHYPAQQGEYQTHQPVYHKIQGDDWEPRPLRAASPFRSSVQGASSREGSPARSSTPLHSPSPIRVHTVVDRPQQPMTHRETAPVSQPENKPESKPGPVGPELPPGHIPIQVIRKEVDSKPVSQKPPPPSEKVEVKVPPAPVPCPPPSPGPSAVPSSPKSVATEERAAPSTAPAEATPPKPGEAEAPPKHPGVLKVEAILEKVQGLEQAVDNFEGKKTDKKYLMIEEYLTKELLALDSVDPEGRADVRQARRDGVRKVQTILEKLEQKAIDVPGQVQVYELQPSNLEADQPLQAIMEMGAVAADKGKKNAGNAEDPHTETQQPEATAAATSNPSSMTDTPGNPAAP

- binding result: binds
Binder: ICALFMLPLCLMVCQWRCLRCLRQQHDDFA (peptide, UniProt P56817 465-494, looked up) [I465-A494 region of human BACE1 (peptide array spots)]
